Results published in patent US20180265915A1, “TRANSCRIPTION FACTOR DECOYS” (priority 2008, published 2018).

Key:
S. aureus ATCC 6538NA = assay: Fur TFD growth assay in non-iron-limiting and iron-limiting media; assay type: cell-based, Staphylococcus aureus; conditions: 1 nM TFD; DOTAP, 60 nM gramicidin
Description: S. aureus ATCC 6538NA cultures were grown and maintained in BHI media (Becton Dickenson). Frozen stocks were prepared by mixing equal volumes of a culture in early exponential growth (OD of 0.3 at A600) with 50% glycerol and freezing at −80° C. BHI was the media used for non-iron limiting conditions and NRPMI, which had been prepared as previously described (Skaar et al. 2004), for iron-limiting growth conditions.
A stock solution of gramicidin (Sigma) was freshly prepared by dissolving 21 mg in 1 ml methanol, diluted prior to use in water and further diluting 1/100 in growth medium to give a final concentration of 60 nM. Supplemented media was inoculated 1/100 with the frozen S. aureus stock and incubated at room temperature for 10 min. TFD-DOTAP complexes were formed by mixing 1 ug of TFD with 2 μg of DOTAP (Roche) and incubating at room temperature for 10 min on the bench. The TFD complex was then mixed with inoculated medium, aliquoted into 96 well flat-bottomed plates and growth was analysed by culturing at 37° C. with shaking in a BioTek plate reader.
To achieve transfection, TFDs were mixed with the commercially available lipid preparation DOTAP to form a stable complex and shield the negative charge of the phosphate backbone. The TFD-DOTAP complex was then mixed with S. aureus in BHI, a non-iron limiting medium, which had been supplemented with 60 nM gramicidin. […]

S. aureus = assay: Quantification of TFD number by real-time qPCR; assay type: cell-based, Staphylococcus aureus; conditions: in the presence of the transfection reagents; BHI
Description: Cells from individual wells were washed twice in PBS (phosphate buffered saline) and resuspended in 100 μl water. 1 μl of each sample was used in each qPCR reaction, mixing DNA standards or samples with primers to either amplify the TFD (Tef and Ter; SEQ ID NOs 1 & 2) or 16S rRNA (stypF, 5′-ACGGTCTTGCTGTCACTTATA-3′ (SEQ ID NO: 36); stypR, 5′-TACACATATGTTCTTCCCTAATAA-3′ (SEQ ID NO: 37)) in 12.5 ul of SYBR Green DNA mix supplemented with 0.5 μl of ROX (Invitrogen). The resultant data was used to calculate the number of TFDs present per genome.

[1] = test system: methicillin-resistant strains (MRSA); assay: Sig TFD growth assay on MRSA clinical isolates; assay type: cell-based, Staphylococcus aureus; conditions: 10 nM TFD; DOTAP, 60 nM Gramicidin
Description: Cholesterol/Cy5-labeled decoy polynucleotides were prepared as in Example 5.1. Typically 1 μg of Sig TFD was then complexed with 0.3 μl of the liposomal transfection reagent DOTAP (1,2-dioleoyl-3-trimethylammonium propane; Roche) and incubated at room temperature for 10 min. The assays to determine their effect on growth of bacterial cells were performed using 96 well plates, each well containing 200 μl of broth consisting of BHI media (Becton Dickinson) supplemented with 60 nM Gramicidin (Sigma Corporation. Cat# G5002). 1 μl of various concentrations of a Cholesterol/Cy5-labeled decoy complexed with TFD were added to each well and the effect on bacterial growth of clinical isolates of S. aureus that had been determined to be methicillin-resistant strains (MRSA) was monitored. Growth was monitored by measuring absorbance of the broth at time intervals during incubation. The plates were incubated at 37° C. with shaking and absorbance readings (at 450 nM) were taken using a plate reader.

EMRSA15 = assay: Lag-time growth assay with antibiotics on EMRSA15; assay type: cell-based, Staphylococcus aureus; conditions: 10 nM TFD
Description: Sig dumbbell TFD was prepared as described in Example 9.1 (see below). A growth assay was carried out as described in Example 5.2 with a well-characterised MRSA strain, EMRSA15.
For the cultures treated with the Sig TFD, the lag-time is the delay in growth compared to that seen with the Control TFD in the presence of antibiotic.
Lagtime is defined as the time that growth is delayed (in comparison to a mock-transfected culture) due to treatment of the TFD.

[2] = test system: clinically-isolated MRSA strain MRSA-5; assay: Dumbbell Sig TFD growth assay on a clinically-isolated MRSA strain; assay type: cell-based, Staphylococcus aureus; conditions: 10 nM TFD, dumbbell configuration
Description: A growth assay was performed as described in Example 5.1 using the Sig TFD in its dumbbell configuration and a clinically-isolated MRSA strain.

K. pneumoniae [3] = assay: Sigma 54 TFD growth assay, cell penetrating peptide transfection; assay type: cell-based, Klebsiella pneumoniae; conditions: 10 nM TFD; M9 media; complexed with cell penetrating peptide
Description: Growth assays were performed as described in Section 4.1 with the difference being that the media used was M9 media (Sambrook et al (1989) Molecular Cloning. 2nd Edition vol. 3 p.A3). The media was not supplemented with any co-transfectant.
Transfection was achieved by complexing the TFD with a cell penetrating peptide. The peptide consisted of two portions: a linear chain of nine D-arginines and a previously described peptide sequence found to be capable of penetrating the membrane of K. pneumoniae (Vaara, Antimicrobial Agents and Chemotherapy (1996) 40:1801). The positively charged arginines (R9) serve to bind the phosphate backbone of the TFD through a charge interaction. The use of such R9 tails to complex transfecting moieties to transfect bacteria has been described previously (Kim, Molecular Therapy (2006) 14:343). The entire sequence of the peptide used was:
TFDs were mixed with increasing amounts of IKFLKFLKKL-R9 peptide in a TE based buffer supplemented with 5% glucose. The mixture was incubated at room temperature for 1 hour and then either used directly in transfections or analysed by agarose gel electrophoresis. Typically the minimum amount of IKFLKFLKKL-R9 was used that caused the complex with DNA not to run in the gel; i.e. the charge of the nucleic acid backbone had been neutralised by binding of poly-arginine. […]

K. pneumoniae [4] = assay: KP_Sig TFD growth assay in vitro; assay type: cell-based, Klebsiella pneumoniae; conditions: PCR_TFD, transfected using a cell penetrating peptide
From the text: Cells were transfected as described in Example 13, using a cell penetrating peptide. […] The two controls used were: untreated cells (K. pneumoniae) and a control TFD consisting of a scrambled sequence.

B1: Control TFD: unrelated sequence of similar nucleotide composition that does not occur in the S. aureus genome, SEQ ID NOs: 34 & 35 (nucleic acid, listed as Mycobacterium smegmatis)
chain 1: TGGCCACGGATCCGGGTGACTGCGGGTCCGTA
chain 2: ACGGACCCGCAGTCACCCGGATCCGTGGCCAA
modifications: further chemistry not given here
S. aureus ATCC 6538NA
  growth of S. aureus in BHI, non-iron limiting medium: reduction of the S. aureus growth rate
S. aureus
  number of TFDs detected per genome: 5340 TFDs per genome
[1]
  effect on growth of MRSA strains in BHI medium: no effect on bacterial growth
EMRSA15; Ciprofloxacin 0.5 mg/L (text: 0.5 mg/ml)
  Lagtime: 0.3 h
EMRSA15; Erythromycin 0.5 mg/L (text: 0.5 mg/ml)
  Lagtime: -0.3 h
EMRSA15; Methicillin 2 mg/L (text: 2 mg/ml)
  Lagtime: 0.2 h
[2]
  inhibition of cell growth of clinically-isolated MRSA strain: could not
K. pneumoniae [3]
  inhibition of growth of K. pneumoniae culture: no inhibition was seen
K. pneumoniae [4]
  effect on K. pneumoniae cell growth in vitro: no effect on cell growth
